According to patent US10294487B2, “Methods and compositions involving ALS variants with native substrate preference” (E I DU PONT DE NEMOURS AND COMPANY, priority 2012, dated 2019):

B1: UBQ10: GM-ALS_P178S_D357E: UBQ10 promoter driving ALS variant SEQ ID NO 17 in transgenic soybean (protein)
chain: MAATASRTTRFSSSSSHPTFPKRITRSTLPLSHQTLTKPNHALKIKCSISKPPTAAPFTKEAPTTEPFVSRFASGEPRKGADILVEALERQGVTTVFAYPGGASMEIHQALTRSAAIRNVLPRHEQGGVFAAEGYARSSGLPGVCIATSGPGATNLVSGLADALMDSVPVVAITGQVSRRMIGTDAFQETPIVEVSRSITKHNYLILDVDDIPRVVAEAFFVATSGRPGPVLIDIPKDVQQQLAVPNWDEPVNLPGYLARLPRPPAEAQLEHIVRLIMEAQKPVLYVGGGSLNSSAELRRFVELTGIPVASTLMGLGTFPIGDEYSLQMLGMHGTVYANYAVDNSDLLLAFGVRFDERVTGKLEAFASRAKIVHIDIDSAEIGKNKQAHVSVCADLKLALKGINMILEEKGVEGKFDLGGWREEINVQKHKFPLGYKTFQDAISPQHAIEVLDELTNGDAIVSTGVGQHQMWAAQFYKYKRPRQWLTSGGLGAMGFGLPAAIGAAVANPGAVVVDIDGDGSFIMNVQELATIRVENLPVKILLLNNQHLGMVVQWEDRFYKSNRAHTYLGDPSSESEIFPNMLKFADACGIPAARVTKKEELRAAIQRMLDTPGPYLLDVIVPHQEHVLPMIPSNGSFKDVITEGDGRTRY
B2: UBQ10: GM-ALS_W555L: UBQ10 promoter driving ALS variant SEQ ID NO 26 in transgenic soybean (protein)
chain: MAATASRTTRFSSSSSHPTFPKRITRSTLPLSHQTLTKPNHALKIKCSISKPPTAAPFTKEAPTTEPFVSRFASGEPRKGADILVEALERQGVTTVFAYPGGASMEIHQALTRSAAIRNVLPRHEQGGVFAAEGYARSSGLPGVCIATSGPGATNLVSGLADALMDSVPVVAITGQVPRRMIGTDAFQETPIVEVSRSITKHNYLILDVDDIPRVVAEAFFVATSGRPGPVLIDIPKDVQQQLAVPNWDEPVNLPGYLARLPRPPAEAQLEHIVRLIMEAQKPVLYVGGGSLNSSAELRRFVELTGIPVASTLMGLGTFPIGDEYSLQMLGMHGTVYANYAVDNSDLLLAFGVRFDDRVTGKLEAFASRAKIVHIDIDSAEIGKNKQAHVSVCADLKLALKGINMILEEKGVEGKFDLGGWREEINVQKHKFPLGYKTFQDAISPQHAIEVLDELTNGDAIVSTGVGQHQMWAAQFYKYKRPRQWLTSGGLGAMGFGLPAAIGAAVANPGAVVVDIDGDGSFIMNVQELATIRVENLPVKILLLNNQHLGMVVQLEDRFYKSNRAHTYLGDPSSESEIFPNMLKFADACGIPAARVTKKEELRAAIQRMLDTPGPYLLDVIVPHQEHVLPMIPSNGSFKDVITEGDGRTRY
B3: UBQ10: GM-ALS_A103T_P178S_D357E: UBQ10 promoter driving ALS variant SEQ ID NO 8 in transgenic soybean (protein)
chain: MAATASRTTRFSSSSSHPTFPKRITRSTLPLSHQTLTKPNHALKIKCSISKPPTAAPFTKEAPTTEPFVSRFASGEPRKGADILVEALERQGVTTVFAYPGGTSMEIHQALTRSAAIRNVLPRHEQGGVFAAEGYARSSGLPGVCIATSGPGATNLVSGLADALMDSVPVVAITGQVSRRMIGTDAFQETPIVEVSRSITKHNYLILDVDDIPRVVAEAFFVATSGRPGPVLIDIPKDVQQQLAVPNWDEPVNLPGYLARLPRPPAEAQLEHIVRLIMEAQKPVLYVGGGSLNSSAELRRFVELTGIPVASTLMGLGTFPIGDEYSLQMLGMHGTVYANYAVDNSDLLLAFGVRFDERVTGKLEAFASRAKIVHIDIDSAEIGKNKQAHVSVCADLKLALKGINMILEEKGVEGKFDLGGWREEINVQKHKFPLGYKTFQDAISPQHAIEVLDELTNGDAIVSTGVGQHQMWAAQFYKYKRPRQWLTSGGLGAMGFGLPAAIGAAVANPGAVVVDIDGDGSFIMNVQELATIRVENLPVKILLLNNQHLGMVVQWEDRFYKSNRAHTYLGDPSSESEIFPNMLKFADACGIPAARVTKKEELRAAIQRMLDTPGPYLLDVIVPHQEHVLPMIPSNGSFKDVITEGDGRTRY
B4: SAMS: GM-ALS W555L: SAMS promoter driving ALS variant SEQ ID NO 26 in transgenic soybean (protein)
chain: MAATASRTTRFSSSSSHPTFPKRITRSTLPLSHQTLTKPNHALKIKCSISKPPTAAPFTKEAPTTEPFVSRFASGEPRKGADILVEALERQGVTTVFAYPGGASMEIHQALTRSAAIRNVLPRHEQGGVFAAEGYARSSGLPGVCIATSGPGATNLVSGLADALMDSVPVVAITGQVPRRMIGTDAFQETPIVEVSRSITKHNYLILDVDDIPRVVAEAFFVATSGRPGPVLIDIPKDVQQQLAVPNWDEPVNLPGYLARLPRPPAEAQLEHIVRLIMEAQKPVLYVGGGSLNSSAELRRFVELTGIPVASTLMGLGTFPIGDEYSLQMLGMHGTVYANYAVDNSDLLLAFGVRFDDRVTGKLEAFASRAKIVHIDIDSAEIGKNKQAHVSVCADLKLALKGINMILEEKGVEGKFDLGGWREEINVQKHKFPLGYKTFQDAISPQHAIEVLDELTNGDAIVSTGVGQHQMWAAQFYKYKRPRQWLTSGGLGAMGFGLPAAIGAAVANPGAVVVDIDGDGSFIMNVQELATIRVENLPVKILLLNNQHLGMVVQLEDRFYKSNRAHTYLGDPSSESEIFPNMLKFADACGIPAARVTKKEELRAAIQRMLDTPGPYLLDVIVPHQEHVLPMIPSNGSFKDVITEGDGRTRY
B5: SAMS: GM-ALS_A103T_P178S_D357E: SAMS promoter driving ALS variant SEQ ID NO 8 in transgenic soybean (protein)
chain: MAATASRTTRFSSSSSHPTFPKRITRSTLPLSHQTLTKPNHALKIKCSISKPPTAAPFTKEAPTTEPFVSRFASGEPRKGADILVEALERQGVTTVFAYPGGTSMEIHQALTRSAAIRNVLPRHEQGGVFAAEGYARSSGLPGVCIATSGPGATNLVSGLADALMDSVPVVAITGQVSRRMIGTDAFQETPIVEVSRSITKHNYLILDVDDIPRVVAEAFFVATSGRPGPVLIDIPKDVQQQLAVPNWDEPVNLPGYLARLPRPPAEAQLEHIVRLIMEAQKPVLYVGGGSLNSSAELRRFVELTGIPVASTLMGLGTFPIGDEYSLQMLGMHGTVYANYAVDNSDLLLAFGVRFDERVTGKLEAFASRAKIVHIDIDSAEIGKNKQAHVSVCADLKLALKGINMILEEKGVEGKFDLGGWREEINVQKHKFPLGYKTFQDAISPQHAIEVLDELTNGDAIVSTGVGQHQMWAAQFYKYKRPRQWLTSGGLGAMGFGLPAAIGAAVANPGAVVVDIDGDGSFIMNVQELATIRVENLPVKILLLNNQHLGMVVQWEDRFYKSNRAHTYLGDPSSESEIFPNMLKFADACGIPAARVTKKEELRAAIQRMLDTPGPYLLDVIVPHQEHVLPMIPSNGSFKDVITEGDGRTRY
B6: SAMS: GM-ALS_P178A: SAMS promoter driving ALS variant SEQ ID NO 9 in transgenic soybean (protein)
chain: MAATASRTTRFSSSSSHPTFPKRITRSTLPLSHQTLTKPNHALKIKCSISKPPTAAPFTKEAPTTEPFVSRFASGEPRKGADILVEALERQGVTTVFAYPGGASMEIHQALTRSAAIRNVLPRHEQGGVFAAEGYARSSGLPGVCIATSGPGATNLVSGLADALMDSVPVVAITGQVARRMIGTDAFQETPIVEVSRSITKHNYLILDVDDIPRVVAEAFFVATSGRPGPVLIDIPKDVQQQLAVPNWDEPVNLPGYLARLPRPPAEAQLEHIVRLIMEAQKPVLYVGGGSLNSSAELRRFVELTGIPVASTLMGLGTFPIGDEYSLQMLGMHGTVYANYAVDNSDLLLAFGVRFDDRVTGKLEAFASRAKIVHIDIDSAEIGKNKQAHVSVCADLKLALKGINMILEEKGVEGKFDLGGWREEINVQKHKFPLGYKTFQDAISPQHAIEVLDELTNGDAIVSTGVGQHQMWAAQFYKYKRPRQWLTSGGLGAMGFGLPAAIGAAVANPGAVVVDIDGDGSFIMNVQELATIRVENLPVKILLLNNQHLGMVVQWEDRFYKSNRAHTYLGDPSSESEIFPNMLKFADACGIPAARVTKKEELRAAIQRMLDTPGPYLLDVIVPHQEHVLPMIPSNGSFKDVITEGDGRTRY

Assays:
Format in all cases: in vivo
soybean plants [1] = assay: Spray test of homozygous transgenic soybean plants with five ALS-inhibitor herbicides; settings: homozygous T1 or T2 plants; for Lowest % injury Chlorimuron: chlorimuron 32 g ai/ha foliar; for Lowest % injury Imazapyr: imazapyr 4 g ai/ha foliar; for Lowest % injury Rimsulfuron: rimsulfuron 8 g ai/ha foliar; for Lowest % injury Thifensulfuron-methyl: thifensulfuron-methyl 16 g ai/ha foliar; for Lowest % injury Tribenuron-methyl: tribenuron-methyl 16 g ai/ha foliar
Protocol: T1 or T2 soybean plants were evaluated with qPCR to confirm they were homozygous for the transgene. Plants were sprayed at the V1 to V2 growth stage with the commercial formulations of chlorimuron (32 g ai/ha), tribenuron-methyl (16 g ai/ha), thifensulfuron-methyl (16 g ai/ha), rimsulfuron (8 g ai/ha), and imazapyr (4 g ai/ha). Each herbicide was applied foliarly with nonionic surfactant in a spray volume of 374 L/ha. The herbicide response for individual plants was determined by comparing to untreated plants of similar genetic background. Visual injury was scored on a scale of 0 to 100% injury (0=no effect to 100=dead plant). The lowest response for four treated plants of a single event from each construct with the listed expression cassette is reported.

soybean plants [2] = assay: Chlorsulfuron spray test of transgenic T1 soybean plants; settings: chlorsulfuron 3 g ai/ha foliar; homozygous T1 plants; 8 days after treatment; 0=no effect, 100=dead plant
Protocol: T1 plants, each having an ALS variant transgene, were grown to the V1 to V2 growth stage and then sprayed with commercial chlorsulfuron formulation at a rate of 3 g ai/ha. All chlorsulfuron treatments were applied foliarly with 0.25% nonionic surfactant in a spray volume of 374 L/ha. Individual plants were compared to untreated plants of similar genetic background, evaluated for herbicide response at eight days after treatment and assigned a visual response score from 0 to 100% injury (0=no effect to 100=dead plant at day 8).
Results in Table 8 list the lowest injury among plants of a single event for constructs containing the listed expression cassette. The amino acid substituted ALS variants provided more protection than the overexpression of the native ALS gene. Seed was produced from a number of T1 plants and advanced to more extensive herbicide testing in the T2 generation.

soybean plants [3] = assay: Field spray test of homozygous T3 soybean plants with Affinity Broadspec; settings: Affinity Broadspec (thifensulfuron + tribenuron) 1 oz product per acre
Protocol: Homozygous T3 soybean plants with and without ALS variant transgenes were grown in a field study and sprayed at the V2 to V4 growth stage with a commercial formulation of Affinity Broadspec at 1 oz product per acre (2× typical field rate). Affinity Broadspec contains 25% thifensulfuron and 25% tribenuron by volume. The herbicide was applied foliarly with nonionic surfactant. The herbicide response for individual events was determined by comparing to untreated plants of similar genetic background. Visual injury is on a scale of 0 to 100% injury (0=no effect to 100=dead plant). The substituted ALS variants gave substantially more protection to ALS-inhibitors than overexpression of the native ALS gene.

Molecule	Lowest % injury Chlorimuron (soybean plants [1]) [%]	Lowest % injury Imazapyr (soybean plants [1]) [%]	Lowest % injury Rimsulfuron (soybean plants [1]) [%]	Lowest % injury Thifensulfuron-methyl (soybean plants [1]) [%]	Lowest % injury Tribenuron-methyl (soybean plants [1]) [%]	Lowest % injury (soybean plants [2]) [%]	Lowest % injury (soybean plants [3]) [%]
B1	20	40	70	20	20	5	13
B2	5	10	80	5	–	75	–
B3	5	50	80	0	55	75	–
B4	–	–	–	–	–	80	–
B5	–	–	–	–	–	80	–
B6	0	–	80	25	80	0	–
